Test results: US20160129077A1, “Use of recombinant ganoderma immunoregulatory protein (rLZ-8) in preparation of drug for treating melanoma” (priority 2013, published 2016)
Like-named read-outs stand apart in the source and are kept apart here. Marks after values point to notes of the source that are not given here.

Tests used:
[1] = system: human lung carcinoma cells (A549); conditions: cited from earlier work
[2] = system: human gastric cancer cells (SGC-7901); conditions: cited from earlier work
B16F10 orthotopic tumor = conditions: for Mortality rate (administration for 28 days) / Mortality rate (administration for 56 days): dead mice/animal number
Experimental: The mice were transplanted with a melanoma cells line B16-F10.
The mice melanoma cells B16-F10 were cultured in the DMEM containing 10% fetal bovine serum, at 37° C. in the CO2 thermostat incubator. 200 μl of B16-F10 cell suspension (containing 1×10^7 cells) was slowly subcutaneously injected into a dorsal-ventral side of the mouse through 1 ml syringe, so as to establish a model of mice transplanted with tumors. […] The rLZ-8 was injected once per day; the DTIC was continuously tail-intravenously injected for 5 days and injected for a second time after 3 weeks. During the experiment, living states of the mice were observed; the mice were weighed once every 7 days; blood samples were taken from tail veins of the mice every 2 weeks; volumes of the tumors, subcutaneously injected into the mice, were measured every 2 days; for each group, the tumors were dissected at an end of the experiment and weighed on the balance, with weights recorded. According to a formula that a tumor growth inhibition rate=(an average weight of the tumors of the physiological saline group−an average weight of the tumors of the drug administrated groups)/the average weight of the tumors of the physiological saline group, the inhibition rate of the rLZ-8 upon the growth of the orthotopic tumor was calculated.

B16-F10 lung metastases = assay: B16-F10 melanoma lung metastasis model (tail vein injection) in Kunming mice; assay type: in vivo; conditions: for Survival rate when all mice of the negative contrast group were dead: 87th / 95th day after injecting the tumors
Text: DMEM, fetal bovine serum, PBS, trypsin-EDTA, DMSO, Tris-HCl buffer with pH 7.6 for rinsing, 0.05% trypsin, rLZ-8, and DTIC.
After the mice were put to death, lungs of the dead mice were dissected out and the number of black spots on surfaces of the lungs, formed by an aggregation of metastasis cell, was counted, so as to calculate the inhibition rate of the drug against the growth of the lung metastasis as: inhibition rate=(an average metastasis number of the negative contrast group−an average metastasis number of the drug administrated group)/the average metastasis number of the negative contrast group×100%. A time and the number of the dead mouse in each experiment group were recorded in detail, especially during administrating the drug continuously, until the negative contrast group was completely dead; and then, the survival states of the mice in the experiment groups and the contrast groups were analyzed. A survival rate was calculated according to the number of the dead mice in the other groups when all the mice of the negative contrast group were dead, based on a formula that survival rate=(a total number of the mice−the number of the dead mice)/the total number of the mice.

[3] = system: IFN-γ secreting expression; assay: Neutralization activity of anti-rLZ-8 antibody by biological activity method (IFN-γ secreting expression stimulated by rLZ-8); assay type: cell-based
Experimental: As a fungal recombinant genetic engineering drug, it is crucial to track generation of antibody of the rLZ-8 for a preclinical evaluation. Blood serum of normal monkeys, Macaca fascicularis, after being continuously administrated, was selected for testing antibody of the rLZ-8 by ELISA and for testing a neutralization activity of anti-rLZ-8 antibody by a biological activity method.
On the 9th-11th days of administrating the drug, three monkeys were tested to have low titer (1:5) of the anti-rLZ-8 antibody; after the 28th day of administrating, the titer of the antibody maintained low, within a range of 1:25 to 1:125. No anti-rLZ-8 antibody was tested from the monkeys of the contrast group. […] Therefore, the inhibition effect of the monkey blood serum was not the property of the competitive neutralizing antibody.

[4] = Toxicity test of rLZ-8 on SD rats; assay type: in vivo; parameters: Weight gains, male / Weight gains, female / BUN (blood urea nitrogen) / CHE (cholinesterase) / CRE (creatinine) / TBA (total bile acid) / UA (uric acid) / ALT (alanine aminotransferase) / AST (aspartate aminotransferase): unit not given here; conditions: for Weight gains, female: female SD rats; for Weight gains, female / Weight gains, male: 46 days; for Weight gains, male: male SD rats
Experimental: The administration dosages for the rats were calculated based on the administration dosage for the mice; the rats were divided into a contrast group (physiological saline), a low dosage group (15 μl/kg weight), a medium dosage group (30 μl/kg weight) and a high dosage group (60 μl/kg weight). The administration manner was an intraperitoneal injection.
Feeding amount, weight; serology: liver function and kidney function; immunity: thymus index and spleen index; serum complements IgM, IgG, C3 and C4; pathology examination: heart, liver, spleen, lung, kidney, pancreas, thymus, gonad etc.

[5] = medium dosage 246 μg/kg, 28 days
[6] = medium dosage 246 μg/kg, 56 days
[7] = culture medium with anti-rLZ-8 antibody positive (1:125) monkey blood serum diluted 10 times
[8] = high dosage 60 μl/kg weight i.p.
[9] = low dosage 15 μl/kg weight i.p.
[10] = medium dosage 30 μl/kg weight i.p.

B1: rLZ-8: recombinant ganoderma immunoregulatory protein (LZ-8), fungal immunoregulatory protein obtained by gene engineering (protein, UniProt P14945 2-111, looked up)
Immunomodulatory protein Ling …: SDTALIFRLAWDVKKLSFDYTPNWGRGNPNNFIDTVTFPKVLTDKAYTYRVAVSGRNLGVKPSYAVESDGSQKVNFLEYNSGYGIADTNTIQVFVVDPDTNNDFIIAQWN
- Killing of cells in vitro [1]: effectively kills
- Killing of cells in vitro [2]: effectively kills
- Increase of tumor inhibition rate between administration for 28 days and for 56 days (B16F10 orthotopic tumor; each rLZ-8 dosage group): around 15%
- Tumor weight (B16F10 orthotopic tumor; high dosage 492 μg/kg tail i.v. once per day, 28 days): 0.14 ± 0.04 g
- Tumor growth inhibition rate (B16F10 orthotopic tumor; high dosage 492 μg/kg, 28 days): 88.49 ± 0.51 %
- Tumor volume (B16F10 orthotopic tumor; high dosage 492 μg/kg, 28 days): 0.11 ± 0.03** mm^3
- Tumor growth inhibition rate (B16F10 orthotopic tumor; high dosage 492 μg/kg, 56 days): 95.66±1.77%
- Tumor volume (B16F10 orthotopic tumor; high dosage 492 μg/kg, 56 days): 0.13 ± 0.09**^## mm^3
- Tumor weight (B16F10 orthotopic tumor; high dosage 492 μg/kg, 56 days): 0.15 ± 0.07 g
- Mortality rate (administration for 28 days) (B16F10 orthotopic tumor; high dosage 492 μg/kg): 0/10
- Mortality rate (administration for 56 days) (B16F10 orthotopic tumor; high dosage 492 μg/kg): 0/10
- Tumor weight (B16F10 orthotopic tumor; low dosage 123 μg/kg tail i.v. once per day, 28 days): 0.6 ± 0.21 g
- Tumor growth inhibition rate (B16F10 orthotopic tumor; low dosage 123 μg/kg, 28 days): 51.81 ± 0.41 %
- Tumor volume (B16F10 orthotopic tumor; low dosage 123 μg/kg, 28 days): 0.5 ± 0.14**^## mm^3
- Tumor growth inhibition rate (B16F10 orthotopic tumor; low dosage 123 μg/kg, 56 days): 76.76 ± 0.53 %
- Tumor volume (B16F10 orthotopic tumor; low dosage 123 μg/kg, 56 days): 0.65 ± 0.24**^# mm^3
- Tumor weight (B16F10 orthotopic tumor; low dosage 123 μg/kg, 56 days): 0.79 ± 0.31**^ g
- Mortality rate (administration for 28 days) (B16F10 orthotopic tumor; low dosage 123 μg/kg): 0/10
- Mortality rate (administration for 56 days) (B16F10 orthotopic tumor; low dosage 123 μg/kg): 0/10
- Tumor weight (B16F10 orthotopic tumor; medium dosage 246 μg/kg tail i.v. once per day, 28 days): 0.43 ± 0.17 g
- Tumor growth inhibition rate (B16F10 orthotopic tumor; [5]): 65.00 ± 0.77 %
- Tumor volume (B16F10 orthotopic tumor; [5]): 0.36 ± 0.14**^## mm^3
- Tumor growth inhibition rate (B16F10 orthotopic tumor; [6]): 80.10 ± 1.01 %
- Tumor volume (B16F10 orthotopic tumor; [6]): 0.56 ± 0.18**^## mm^3
- Tumor weight (B16F10 orthotopic tumor; [6]): 0.68 ± 0.19 g
- Mortality rate (administration for 28 days) (B16F10 orthotopic tumor; medium dosage 246 μg/kg): 0/10
- Mortality rate (administration for 56 days) (B16F10 orthotopic tumor; medium dosage 246 μg/kg): 0/10
- Body leukocyte number (B16F10 orthotopic tumor; tumor-bearing mice, tail vein blood, anti-tumor treatment experiment (28/56 days)): small impact on the body leukocyte number
- Survival rate when all mice of the negative contrast group were dead (B16-F10 lung metastases; high dosage 492 μg/kg): 10%
- Tumor metastases inhibition rate (B16-F10 lung metastases; high dosage 492 μg/kg, 28 days): 71.17±2.43%
- Tumor metastases inhibition rate (B16-F10 lung metastases; high dosage 492 μg/kg, 56 days): 89.78 ± 2.77 %
- Survival rate when all mice of the negative contrast group were dead (B16-F10 lung metastases; low dosage 123 μg/kg): 25%
- Tumor metastases inhibition rate (B16-F10 lung metastases; low dosage 123 μg/kg, 28 days): 62.13±1.88%
- Tumor metastases inhibition rate (B16-F10 lung metastases; low dosage 123 μg/kg, 56 days): 66.18 ± 1.79 %
- Survival rate when all mice of the negative contrast group were dead (B16-F10 lung metastases; medium dosage 246 μg/kg): 30%
- Tumor metastases inhibition rate (B16-F10 lung metastases; [6]): 84.31 ± 3.12 %
- Maximum expression value (Emax) of value A [3, 7]: 0.78±0.09
- Slope of the curve [3, 7]: 0.77±0.20
- Generation of neutralizing antibody ([3]; monkeys, continuous administration): does not generate the neutralizing antibody
- Half maximal inhibitory concentration IC50 ([3]; with antibody positive monkey blood serum versus without): increased
- Impact on liver function and kidney function ([4]; SD rats, all dosage groups): no obvious adverse impact on the liver function and the kidney function
- Pathology examination of tested organs ([4]; compared with the organs of the contrast group): no obvious morphological change
- Weight gains, female [4, 8]: 133.37 ± 15.29
- Weight gains, female [4, 9]: 140.00 ± 23.48
- Weight gains, female [4, 10]: 124.08 ± 14.17
- ALB (albumin) [4, 8]: 34.77 ± 1.44
- ALP (alkaline phosphatase) [4, 8]: 218.50 ± 69.98
- ALT (alanine aminotransferase) [4, 8]: 30.75 ± 2.42
- AST (aspartate aminotransferase) [4, 8]: 128.58 ± 18.74
- BUN (blood urea nitrogen) [4, 8]: 7.24 ± 0.89
- C3 [4, 8]: 0.428 ± 0.082 g/L
- C4 [4, 8]: 0.352 ± 0.016 g/L
- CHE (cholinesterase) [4, 8]: 456.17 ± 309.59
- CRE (creatinine) [4, 8]: 24.22 ± 2.55
- IgG [4, 8]: 0.124 ± 0.081 g/L
- IgM [4, 8]: 0.236 ± 0.076 g/L
- Spleen index (spleen weight/weight × 100) [4, 8]: 0.19 ± 0.02
- TBA (total bile acid) [4, 8]: 37.30 ± 17.63
- TP (total protein) [4, 8]: 63.23 ± 2.88
- Thymus index (thymus weight/weight × 100) [4, 8]: 0.17 ± 0.03
- UA (uric acid) [4, 8]: 164.50 ± 28.94
- ALB (albumin) [4, 9]: 37.54 ± 1.62
- ALP (alkaline phosphatase) [4, 9]: 243.50 ± 103.54
- ALT (alanine aminotransferase) [4, 9]: 35.50 ± 4.93
- AST (aspartate aminotransferase) [4, 9]: 175.00 ± 34.96
- BUN (blood urea nitrogen) [4, 9]: 7.54 ± 0.47
- C3 [4, 9]: 0.449 ± 0.097 g/L
- C4 [4, 9]: 0.397 ± 0.021 g/L
- CHE (cholinesterase) [4, 9]: 474.17 ± 305.10
- CRE (creatinine) [4, 9]: 24.97 ± 1.89
- IgG [4, 9]: 0.146 ± 0.021 g/L
- IgM [4, 9]: 0.220 ± 0.080 g/L
- Spleen index (spleen weight/weight × 100) [4, 9]: 0.19 ± 0.03
- TBA (total bile acid) [4, 9]: 30.13 ± 16.29
- TP (total protein) [4, 9]: 67.58 ± 3.34
- Thymus index (thymus weight/weight × 100) [4, 9]: 0.15 ± 0.03
- UA (uric acid) [4, 9]: 174.42 ± 46.65
- Weight gains, male [4, 8]: 221.92 ± 21.84
- Weight gains, male [4, 9]: 215.25 ± 17.82
- Weight gains, male [4, 10]: 218.67 ± 10.89
- ALB (albumin) [4, 10]: 36.57 ± 2.20
- ALP (alkaline phosphatase) [4, 10]: 242.83 ± 80.94
- ALT (alanine aminotransferase) [4, 10]: 34.42 ± 4.50
- AST (aspartate aminotransferase) [4, 10]: 169.08 ± 30.83
- BUN (blood urea nitrogen) [4, 10]: 7.36 ± 0.97
- C3 [4, 10]: 0.457 ± 0.088 g/L
- C4 [4, 10]: 0.412 ± 0.017 g/L
- CHE (cholinesterase) [4, 10]: 487.17 ± 303.02
- CRE (creatinine) [4, 10]: 24.26 ± 3.55
- IgG [4, 10]: 0.121 ± 0.021 g/L
- IgM [4, 10]: 0.228 ± 0.084 g/L
- Spleen index (spleen weight/weight × 100) [4, 10]: 0.18 ± 0.02
- TBA (total bile acid) [4, 10]: 38.25 ± 18.15
- TP (total protein) [4, 10]: 66.58 ± 4.77
- Thymus index (thymus weight/weight × 100) [4, 10]: 0.12 ± 0.02
- UA (uric acid) [4, 10]: 186.83 ± 45.67
